Reference: US20160031944A1 (PROTAGONIST THERAPEUTICS, published 2016)

Tests used:
[1] = molecular target: T1, α4β1 (R&D Systems #5668-A4) (UniProt P13612 34-977; P05556 21-728); assay: α4β1-VCAM competition ELISA
T1 construct: bought; printed as αβ1; detected with mouse anti-human CD49d antibody 9F10; also called αβ1; A4B1
Method: The solution was removed by shaking and then blocked with 250 ul of 1% BSA in 1×PBS per well. The wells were then incubated at room temperature for 1 hr with shaking. Each well was then washed once with wash buffer (50 mM Tris-HCl pH7.6, 100 mM NaCL, 1 mM MnCl₂ or MgCl₂, 0.05% Tween-20). 25 ul of serial dilutions of peptides starting at 200 μM in assay buffer (Assay buffer: 50 mM Tris-HCl pH7.6, 100 mM NaCl, 1 mM MnCl₂ or MgCl₂, 0.05% Tween-20) was added to each well. […] The final peptide and αβ1 concentrations were 100 μM and 60 nM, respectively. The plates were then incubated at 37° C. for 2 hr. The solution was then removed by shaking and each well was washed three times with wash buffer. 50 ul of 9F10 antibody at 4 ug/ml (purified mouse anti-human CD49d, BD Bioscience Cat#555502) was then added to each well, and the plate was incubated at room temperature for 1 hr with shaking. The solution was again removed by shaking, and each well was washed three times with wash buffer. 50 ul of peroxidase-conjugated AffiniPure Goat anti-mouse IgG (Jackson immune research cat #115-035-003) diluted in 1:5000 in assay buffer was added to each well. The plate was incubated at room temperature for 30 min with shaking. Each well was then washed 3 times with wash buffer. […] The reaction was stepped with 2N H₂SO₄ and absorbance was read at 450 nm.

[2] = molecular target: T2, rh integrin α4β7 (R&D Systems #5397-A30) (human, UniProt P13612 34-977; P26010 20-723); assay: α4β7-MAdCAM competition ELISA
T2 construct: bought; coated on a nickel coated plate at 800 ng/well; also called A4B7
T2 sequence (P13612 34-977 limits assumed, chain 1 of 2): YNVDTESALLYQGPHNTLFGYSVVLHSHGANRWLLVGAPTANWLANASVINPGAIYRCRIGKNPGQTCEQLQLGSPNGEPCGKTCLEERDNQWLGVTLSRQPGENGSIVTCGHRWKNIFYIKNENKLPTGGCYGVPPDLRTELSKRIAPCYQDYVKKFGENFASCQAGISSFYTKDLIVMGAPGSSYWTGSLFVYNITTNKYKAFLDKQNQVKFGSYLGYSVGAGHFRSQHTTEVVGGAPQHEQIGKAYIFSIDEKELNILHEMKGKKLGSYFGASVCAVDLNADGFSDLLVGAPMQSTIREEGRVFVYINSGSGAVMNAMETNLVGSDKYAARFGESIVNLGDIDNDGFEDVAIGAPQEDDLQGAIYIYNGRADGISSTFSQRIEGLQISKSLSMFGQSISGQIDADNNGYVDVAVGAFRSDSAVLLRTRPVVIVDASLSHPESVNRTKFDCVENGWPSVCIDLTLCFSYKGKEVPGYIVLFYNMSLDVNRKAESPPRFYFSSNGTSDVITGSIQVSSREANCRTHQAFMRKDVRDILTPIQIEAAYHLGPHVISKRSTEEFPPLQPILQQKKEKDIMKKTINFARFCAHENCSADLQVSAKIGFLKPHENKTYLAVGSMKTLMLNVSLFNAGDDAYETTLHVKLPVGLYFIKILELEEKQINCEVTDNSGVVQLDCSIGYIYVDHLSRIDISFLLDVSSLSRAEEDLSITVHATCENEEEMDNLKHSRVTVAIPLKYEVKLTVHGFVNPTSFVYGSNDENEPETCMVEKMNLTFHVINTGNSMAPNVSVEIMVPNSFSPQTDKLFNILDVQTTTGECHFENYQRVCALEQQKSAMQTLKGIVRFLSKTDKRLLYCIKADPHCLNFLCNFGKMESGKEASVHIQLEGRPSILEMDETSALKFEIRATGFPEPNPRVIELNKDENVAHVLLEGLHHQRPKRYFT
T2 sequence (P26010 20-723 limits assumed, chain 2 of 2): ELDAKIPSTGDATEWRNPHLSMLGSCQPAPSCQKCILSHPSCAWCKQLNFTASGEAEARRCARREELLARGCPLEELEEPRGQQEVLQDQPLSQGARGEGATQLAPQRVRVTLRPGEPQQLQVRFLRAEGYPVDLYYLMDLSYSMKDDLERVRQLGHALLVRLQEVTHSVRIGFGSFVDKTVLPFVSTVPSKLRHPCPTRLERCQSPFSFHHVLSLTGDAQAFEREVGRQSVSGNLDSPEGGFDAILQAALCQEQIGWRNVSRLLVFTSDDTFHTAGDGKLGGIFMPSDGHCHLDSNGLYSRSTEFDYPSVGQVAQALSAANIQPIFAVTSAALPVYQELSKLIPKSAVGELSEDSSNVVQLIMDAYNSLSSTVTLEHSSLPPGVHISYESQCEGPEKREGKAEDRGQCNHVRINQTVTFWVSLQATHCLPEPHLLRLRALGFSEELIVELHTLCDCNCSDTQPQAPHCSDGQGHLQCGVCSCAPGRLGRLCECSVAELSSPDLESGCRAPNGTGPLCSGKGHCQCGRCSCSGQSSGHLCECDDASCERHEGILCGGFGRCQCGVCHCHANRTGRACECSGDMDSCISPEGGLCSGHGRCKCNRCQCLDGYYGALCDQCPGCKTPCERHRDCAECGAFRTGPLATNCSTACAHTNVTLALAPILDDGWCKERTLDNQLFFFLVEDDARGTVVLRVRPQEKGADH
Method: A nickel coated plate (Pierce #15442) was coated with rh integrin α4β7 (R&D Systems #5397-A30) at 800 ng/well and incubated at room temperature with shaking for 1 hr. The solution was then removed by shaking and blocked with assay buffer (50 mM Tris-HCl pH7.6, 150 mM NaCl, 1 mM MnCl₂ or MgCl₂, 0.05% Tween-20 and 0.5% BSA) at 250 ul/well. The plate was then incubated at room temperature for 1 hr. Each well was washed 3 times with wash buffer (50 mM Tris-HCl pH7.6, 100 mM NaCl, 1 mM MnCl₂ or MgCl₂, 0.05% Tween-20). To each well was added 25 ul of a serial dilution (3-fold dilutions in assay buffer) of peptides starting at 20 μM. 25 ul of recombinant human MAdCAM-1 (R&D Systems #6056-MC) was then added to each well at a fixed concentration 20 nM. The final starting peptide concentration was 10 μM, and the final MAdCAM-1 concentration was 10 nM. The plates were then incubated at room temperature for 1 hr to reach binding equilibrium. The wells were then washed three times with wash buffer. 50 ul of mouse anti-human IgG1-HRP (Invitrogen #A10648) diluted in 1:2000 in assay buffer was then added to each well. The wells were incubated at room temperature for 45 min with shaking. The wells were then washed 3 times with wash buffer. 100 ul of TMB were then added to each well and closely observe during development time. The reaction was stopped with 2N H₂SO₄ and absorbance was read at 450 nm.

T1 sequence (P13612 34-977 limits assumed, chain 1 of 2): as the sequence (P13612 34-977 limits assumed, chain 1 of 2) above
T1 sequence (P05556 21-728 limits assumed, chain 2 of 2): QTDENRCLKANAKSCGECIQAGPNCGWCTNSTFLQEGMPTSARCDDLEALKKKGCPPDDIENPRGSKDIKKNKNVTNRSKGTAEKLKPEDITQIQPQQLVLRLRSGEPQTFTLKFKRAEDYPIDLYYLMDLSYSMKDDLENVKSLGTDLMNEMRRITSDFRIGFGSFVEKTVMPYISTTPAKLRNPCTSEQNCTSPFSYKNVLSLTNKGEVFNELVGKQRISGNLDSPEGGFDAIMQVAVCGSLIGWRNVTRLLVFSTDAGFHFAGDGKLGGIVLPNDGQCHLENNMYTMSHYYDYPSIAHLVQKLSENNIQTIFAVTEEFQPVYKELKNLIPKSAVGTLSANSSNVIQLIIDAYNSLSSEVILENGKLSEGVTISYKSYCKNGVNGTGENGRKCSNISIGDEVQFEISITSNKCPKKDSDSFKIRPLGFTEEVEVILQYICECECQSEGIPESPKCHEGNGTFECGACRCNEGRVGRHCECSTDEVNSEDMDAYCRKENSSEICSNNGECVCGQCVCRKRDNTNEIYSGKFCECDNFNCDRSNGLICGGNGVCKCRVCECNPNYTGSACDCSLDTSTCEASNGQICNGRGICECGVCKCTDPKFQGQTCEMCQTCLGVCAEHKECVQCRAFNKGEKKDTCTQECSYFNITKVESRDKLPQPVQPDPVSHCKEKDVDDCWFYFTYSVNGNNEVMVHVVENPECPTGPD

IC50 [1]: 2020 nM
IC50 [2]: 97 nM
B1: SEQ ID NO 385 (peptide)
peptide: Ac-CRSDTLCGE-NH2
modifications: also: cyclised, mode not given here
notes: also called control peptide
